Results on three molecules are retold here after US6268347A, “Prosaposin-derived peptides” (Regents of the University of CA, priority 1999, dated 2001).

One data set relates to Chung model rats. Put plainly: Tactile allodynia (von Frey 50% paw withdrawal threshold) in Chung model rats. It counts as in vivo, rat. The settings on record: any concentration tested, intrathecal. How it is done: The surgical procedure previously described by Kim and Chung, supra, 1992, was performed on male Sprague-Dawley rats weighing 120 to 150 grams to induce an allodynic state. Briefly, the rats were anesthetized with halothane; subsequently, the left L-5 and L-6 spinal nerves were isolated adjacent to the vertebral column and ligated with 6.0 silk suture distal to the dorsal root ganglion. After a ten to fourteen day post operative recovery period, a spinal catheter was introduced. Five days following the second surgery, intrathecal drug administration was accomplished using a gear driven micro-injection syringe connected to a spinal catheter inserted through the foramen magnum. Prior to testing, the rats were placed in clear plastic wire meshed cages and allowed to accommodate.
To assess the 50% mechanical threshold for paw withdrawal, a von Frey hair was applied to the hind foot avoiding the foot pad. Each of the von Frey hairs, which are calibrated to bend at increasing log forces, were pressed perpendicularly to the foot with sufficient force to cause slight bending for a duration of approximately six to eight seconds. A positive response was noted if the foot was sharply withdrawn. […] The X-axis indicates the time after the injection at which point the hypersensitivity to pressure on the foot pad was measured.

In another data set the test system is neurite outgrowth. The settings on record: cited from earlier work.
The next data set relates to neuroblastoma cells. Conditions: cited from earlier work.
The test system of data set [1] is choline acetyltransferase activity. Conditions: cited from earlier work.

Where a SMILES comes first, the peptide text is derived from it. [ ]: non-standard residue; d: D form.

Consider `CC[C@H](C)[C@H](NC(=O)[C@H](CCC(=O)O)NC(=O)[C@H](CCC(=O)O)NC(=O)[C@@H](NC(=O)[C@H](C)NC(=O)[C@H](CC(N)=O)NC(=O)[C@H](CC(N)=O)NC(=O)[C@H](CC(=O)O)NC(=O)[C@@H](NC(=O)[C@H](CC(C)C)NC(=O)[C@@H](C)NC(=O)[C@@H](N)[C@@H](C)O)[C@@H](C)CC)[C@@H](C)O)C(=O)N[C@@H](CC(C)C)C(=O)N[C@@H](Cc1ccc(O)cc1)C(=O)O` [SEQ ID NO: 2, TXLIDNNATEEILY] (H-T[dA]LIDNNATEEILY-OH), for which the “side effects such as sedation” value in the data set on Chung model rats was “No side effects were observed”.
Consider `CC[C@H](C)[C@H](NC(=O)[C@H](CCC(=O)O)NC(=O)[C@H](CCCCN)NC(=O)[C@H](CCC(=O)O)NC(=O)[C@@H](NC(=O)[C@H](CCCCN)NC(=O)[C@H](CC(N)=O)NC(=O)[C@H](CC(N)=O)NC(=O)[C@H](CC(=O)O)NC(=O)[C@@H](NC(=O)[C@H](CC(C)C)NC(=O)[C@H](CCCCN)NC(=O)[C@@H](NC(=O)[C@@H](NC(=O)[C@H](CCC(=O)O)NC(=O)[C@H](CCCCN)NC(=O)[C@@H](NC(=O)[C@H](CC(C)C)NC(=O)[C@H](Cc1ccccc1)NC(=O)[C@H](CCC(=O)O)NC(=O)[C@@H](N)CS)C(C)C)C(C)C)[C@@H](C)O)[C@@H](C)CC)[C@@H](C)O)C(=O)N[C@@H](CC(C)C)C(=O)O` [SEQ ID NO: 1] (H-CEFLVKEVTKLIDNNKTEKEIL-OH), for which the “side effects such as sedation” value in the data set with Chung model rats is listed as “No significant side effects such as sedation were observed”.

B1: Prosaposin: 517 amino acid protein, precursor of four sphingolipid activator proteins (saposins A, B, C, D) (protein, UniProt P07602 1-524, looked up)
chain: MYALFLLASLLGAALAGPVLGLKECTRGSAVWCQNVKTASDCGAVKHCLQTVWNKPTVKSLPCDICKDVVTAAGDMLKDNATEEEILVYLEKTCDWLPKPNMSASCKEIVDSYLPVILDIIKGEMSRPGEVCSALNLCESLQKHLAELNHQKQLESNKIPELDMTEVVAPFMANIPLLLYPQDGPRSKPQPKDNGDVCQDCIQMVTDIQTAVRTNSTFVQALVEHVKEECDRLGPGMADICKNYISQYSEIAIQMMMHMQPKEICALVGFCDEVKEMPMQTLVPAKVASKNVIPALELVEPIKKHEVPAKSDVYCEVCEFLVKEVTKLIDNNKTEKEILDAFDKMCSKLPKSLSEECQEVVDTYGSSILSILLEEVSPELVCSMLHLCSGTRLPALTVHVTQPKDGGFCEVCKKLVGYLDRNLEKNSTKQEILAALEKGCSFLPDPYQKQCDQFVAEYEPVLIEILVEVMDPSFVCLKIGACPSAHKPLLGTEKCIWGPSYWCQNTETAAQCNAVEHCKRHVWN
modifications: full-length
For B1, in the data set with neurite outgrowth, the neurite outgrowth entry is “stimulates motor neurite outgrowth in vitro and in vivo”. Further, the “cell death in neuroblastoma cells” value in the data set with neuroblastoma cells is “prevents cell death”. The choline acetyltransferase activity entry in data set [1] was “increases choline acetyltransferase activity”.
